# Molecular target: mu opioid receptor (Homo sapiens), P35372
# Assay: competition
# Details: modification not given
# Sequence of mu opioid receptor (Homo sapiens), P35372 (P35372 whole entry): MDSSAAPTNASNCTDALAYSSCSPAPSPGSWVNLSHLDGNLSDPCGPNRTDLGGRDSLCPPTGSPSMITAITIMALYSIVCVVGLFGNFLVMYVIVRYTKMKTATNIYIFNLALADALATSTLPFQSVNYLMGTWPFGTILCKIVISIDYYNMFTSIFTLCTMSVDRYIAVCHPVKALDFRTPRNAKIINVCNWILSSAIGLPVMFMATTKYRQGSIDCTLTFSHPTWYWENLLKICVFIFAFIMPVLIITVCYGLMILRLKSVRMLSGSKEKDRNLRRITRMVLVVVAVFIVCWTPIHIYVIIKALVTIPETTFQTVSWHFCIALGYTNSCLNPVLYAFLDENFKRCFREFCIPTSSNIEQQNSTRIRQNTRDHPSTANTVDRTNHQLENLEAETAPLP
binder,measurement,value
YAGFL [DADLE],Ki,1.58 nM

# Source: PMC6943441, “The Meta-Position of Phe^4 in Leu-Enkephalin Regulates Potency, Selectivity, Functional Activity, and Signaling Bias at the Delta and Mu Opioid Receptors” (Molecules, 2019)
